29 substances from patent US20170037111A1, “Novel peptides and combination of peptides for use in immunotherapy against ovarian cancer and other cancers” (immatics biotechnologies GmbH, priority 2015, published 2017) can be followed below.

The target of this experiment is HLA-A*02:01 (Homo sapiens, UniProt P04439, D140Y/D185E/D98H/E176V/E277Q/G131W/G231S/I119V/I121R/I166T/I218V/L300P/L318F/N151K/N90K/P208A/P217A/Q86G/Q94H/R138H/R169H/T345S). In words: MHC binding assay (UV-ligand exchange, β2m ELISA, peptide exchange yield). Particulars: MHC class I binding score; binding to HLA-A*02:01 ranged by peptide exchange yield (UV-ligand exchange, β2m ELISA). The method in brief: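 Binding is expressed as peptide exchange yield: stabilized MHC complexes were quantified by β2m ELISA, with a 450 nm TMB read-out on streptavidin-coated plates. Complexes came from UV-ligand exchange, where UV irradiation cleaves a photolabile peptide so the candidate peptide can load.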

Take “549 (AMLENASDIKL; listed as Homo sapiens) [compound 549]”: the Peptide exchange result was “″+++″ (≧50% = +++)”. As for “444 (GLLRDEALAEV; listed as Homo sapiens) [compound 444]”, the entry is “″+++″ (≧50% = +++)”; as for “210 (LLLNAVLTV; listed as Homo sapiens) [compound 210]”, “″++″ (≧20% = ++)”. Take “117 (ILPDGEDFLAV; listed as Homo sapiens) [compound 117]”: the Peptide exchange entry is on record as “″+++″ (≧50% = +++)”.

For the substance “63 (YLLPSGGSVTL; listed as Homo sapiens) [compound 63]”, the Peptide exchange result is given as “″++″ (≧20% = ++)”.

For “80 (FLYDNLVESL; listed as Homo sapiens) [compound 80]”, the Peptide exchange entry is on record as “″++″ (≧20% = ++)”. On to “452 (ILLEHGADPNL; listed as Homo sapiens) [compound 452]”, for which the Peptide exchange entry is “″+++″ (≧50% = +++)”. Under “494 (ALQPEPIKV; listed as Homo sapiens) [compound 494]” stands “″++″ (≧20% = ++)”. With “458 (SLIDKLYNI; listed as Homo sapiens) [compound 458]”, the Peptide exchange entry is recorded as “″++″ (≧20% = ++)”. On to “263 (LLVSNLDFGV; listed as Homo sapiens) [compound 263]”, for which the Peptide exchange result is listed as “″+++″ (≧50% = +++)”. In the case of “550 (FLYDEIEAEVNL; listed as Homo sapiens) [compound 550]”, the Peptide exchange result was “″+++″ (≧50% = +++)”. As for “328 (ALNDQVFEI; listed as Homo sapiens) [compound 328]”, the Peptide exchange result was “″+++″ (≧50% = +++)”. As to “78 (SLFSSLEPQIQPV; listed as Homo sapiens) [compound 78]”, the Peptide exchange result was “″+++″ (≧50% = +++)”.

In the case of “222 (NLIENVQRL; listed as Homo sapiens) [compound 222]”, the Peptide exchange entry is given as “″++″ (≧20% = ++)”. “376 (AMFESSQNVLL; listed as Homo sapiens) [compound 376]”: the Peptide exchange result was “″++″ (≧20% = ++)”. Under “528 (SVAEGRALMSV; listed as Homo sapiens) [compound 528]” stands “″+++″ (≧50% = +++)”; under “492 (SLFDGFADGLGV; listed as Homo sapiens) [compound 492]”, “″+++″ (≧50% = +++)”.

Consider “373 (SLLEDKGLAEV; listed as Homo sapiens) [compound 373]”, for which the Peptide exchange entry was “″++″ (≧20% = ++)”.

For “453 (KLLEATSAV; listed as Homo sapiens) [compound 453]”, the Peptide exchange result is recorded as “″++″ (≧20% = ++)”. In the case of “133 (KVLSNIHTV; listed as Homo sapiens) [compound 133]”, the Peptide exchange result is “″++″ (≧20% = ++)”. “551 (KLYESLLPFA; listed as Homo sapiens) [compound 551]”: the Peptide exchange entry was “″+++″ (≧50% = +++)”. As for “597 (KLLEGQVIQL; listed as Homo sapiens) [compound 597]”, the entry is “″+++″ (≧50% = +++)”; as for “119 (FLYIGDIVSL; listed as Homo sapiens) [compound 119]”, “″++++″ (≧75% = ++++)”; as for “140 (YMDAPKAAL; listed as Homo sapiens) [compound 140]”, “″++″ (≧20% = ++)”. With “221 (ALYEEGLLL; listed as Homo sapiens) [compound 221]”, the Peptide exchange result is listed as “″++″ (≧20% = ++)”.

As for “15 (VLLTFKIFL; listed as Homo sapiens) [compound 15]”, the Peptide exchange entry is given as “″++″ (≧20% = ++)”.

Regarding “498 (KLWTGGLDNTV; listed as Homo sapiens) [compound 498]”, the Peptide exchange result was “″+++″ (≧50% = +++)”. On to “432 (TLIEESAKV; listed as Homo sapiens) [compound 432]”, for which the Peptide exchange result was “″++″ (≧20% = ++)”. For the substance “442 (GLLGGGGVLGV; listed as Homo sapiens) [compound 442]”, the Peptide exchange entry is given as “″+++″ (≧50% = +++)”.
